*1 amine or outer side, *2 acyl side, *3 side chain or, on linkers, in order; H or OH if unused. Bridges are numbered along the chain shown (N, C = ends). Where no end group is shown, it is not given here. Side-chain parts run from the residue outwards. The star is where a group is joined. X2 = (S)‑4‑Carboxy‑4‑(19-carboxynonadecanoylamino)butyryl, O=C(O)CCCCCCCCCCCCCCCCCCC(=O)N[C@@H](CCC(=O)*)C(=O)O; C20 diacid = O=C(O)CCCCCCCCCCCCCCCCCCC(=O)*; γGlu = O=C(O)[C@H](CCC(=O)[*:2])N[*:1]; AEEA = NCCOCCOCC(=O)O
B1: N-alpha-[(S)-4-Carboxy-4-(19-carboxynonadecanoylamino)butyryl]-Arg-[Ala17]-pramlintide (peptide)
peptide: X2-RKCNTATCATQRLANFLAHSSNNFGPILPPTNVGSNTY-NH2
modifications: disulfide 3-8
SMILES: CC[C@H](C)[C@H](NC(=O)[C@@H]1CCCN1C(=O)CNC(=O)[C@H](Cc1ccccc1)NC(=O)[C@H](CC(N)=O)NC(=O)[C@H](CC(N)=O)NC(=O)[C@H](CO)NC(=O)[C@H](CO)NC(=O)[C@H](Cc1c[nH]cn1)NC(=O)[C@H](C)NC(=O)[C@H](CC(C)C)NC(=O)[C@H](Cc1ccccc1)NC(=O)[C@H](CC(N)=O)NC(=O)[C@H](C)NC(=O)[C@H](CC(C)C)NC(=O)[C@H](CCCNC(=N)N)NC(=O)[C@H](CCC(N)=O)NC(=O)[C@@H](NC(=O)[C@H](C)NC(=O)[C@@H]1CSSC[C@H](NC(=O)[C@H](CCCCN)NC(=O)[C@H](CCCNC(=N)N)NC(=O)CC[C@H](NC(=O)CCCCCCCCCCCCCCCCCCC(=O)O)C(=O)O)C(=O)N[C@@H](CC(N)=O)C(=O)N[C@@H]([C@@H](C)O)C(=O)N[C@@H](C)C(=O)N[C@@H]([C@@H](C)O)C(=O)N1)[C@@H](C)O)C(=O)N[C@@H](CC(C)C)C(=O)N1CCC[C@H]1C(=O)N1CCC[C@H]1C(=O)N[C@H](C(=O)N[C@@H](CC(N)=O)C(=O)N[C@H](C(=O)NCC(=O)N[C@@H](CO)C(=O)N[C@@H](CC(N)=O)C(=O)N[C@H](C(=O)N[C@@H](Cc1ccc(O)cc1)C(N)=O)[C@@H](C)O)C(C)C)[C@@H](C)O
B2: N-epsilon3-(19-carboxynonadecanoyl-Glu-Glu-Arg-Glu)-[Lys3,His17,Asp21]-pramlintide (peptide)
peptide: KCK([Glu-Arg-Glu-Glu-C20 diacid])TATCATQRLANFLHHSSDNFGPILPPTNVGSNTY-NH2
modifications: disulfide 2-7
B3: N-alpha-[(S)-4-Carboxy-4-(19-carboxynonadecanoylamino)butyryl]-Arg-[Ser17]-pramlintide (peptide)
peptide: X2-RKCNTATCATQRLANFLSHSSNNFGPILPPTNVGSNTY-NH2
modifications: disulfide 3-8
SMILES: CC[C@H](C)[C@H](NC(=O)[C@@H]1CCCN1C(=O)CNC(=O)[C@H](Cc1ccccc1)NC(=O)[C@H](CC(N)=O)NC(=O)[C@H](CC(N)=O)NC(=O)[C@H](CO)NC(=O)[C@H](CO)NC(=O)[C@H](Cc1c[nH]cn1)NC(=O)[C@H](CO)NC(=O)[C@H](CC(C)C)NC(=O)[C@H](Cc1ccccc1)NC(=O)[C@H](CC(N)=O)NC(=O)[C@H](C)NC(=O)[C@H](CC(C)C)NC(=O)[C@H](CCCNC(=N)N)NC(=O)[C@H](CCC(N)=O)NC(=O)[C@@H](NC(=O)[C@H](C)NC(=O)[C@@H]1CSSC[C@H](NC(=O)[C@H](CCCCN)NC(=O)[C@H](CCCNC(=N)N)NC(=O)CC[C@H](NC(=O)CCCCCCCCCCCCCCCCCCC(=O)O)C(=O)O)C(=O)N[C@@H](CC(N)=O)C(=O)N[C@@H]([C@@H](C)O)C(=O)N[C@@H](C)C(=O)N[C@@H]([C@@H](C)O)C(=O)N1)[C@@H](C)O)C(=O)N[C@@H](CC(C)C)C(=O)N1CCC[C@H]1C(=O)N1CCC[C@H]1C(=O)N[C@H](C(=O)N[C@@H](CC(N)=O)C(=O)N[C@H](C(=O)NCC(=O)N[C@@H](CO)C(=O)N[C@@H](CC(N)=O)C(=O)N[C@H](C(=O)N[C@@H](Cc1ccc(O)cc1)C(N)=O)[C@@H](C)O)C(C)C)[C@@H](C)O
B4: N-alpha-[(S)-4-Carboxy-4-(19-carboxynonadecanoylamino)butyryl]-Arg-[Pro17]-pramlintide (peptide)
peptide: X2-RKCNTATCATQRLANFLPHSSNNFGPILPPTNVGSNTY-NH2
modifications: disulfide 3-8
SMILES: CC[C@H](C)[C@H](NC(=O)[C@@H]1CCCN1C(=O)CNC(=O)[C@H](Cc1ccccc1)NC(=O)[C@H](CC(N)=O)NC(=O)[C@H](CC(N)=O)NC(=O)[C@H](CO)NC(=O)[C@H](CO)NC(=O)[C@H](Cc1c[nH]cn1)NC(=O)[C@@H]1CCCN1C(=O)[C@H](CC(C)C)NC(=O)[C@H](Cc1ccccc1)NC(=O)[C@H](CC(N)=O)NC(=O)[C@H](C)NC(=O)[C@H](CC(C)C)NC(=O)[C@H](CCCNC(=N)N)NC(=O)[C@H](CCC(N)=O)NC(=O)[C@@H](NC(=O)[C@H](C)NC(=O)[C@@H]1CSSC[C@H](NC(=O)[C@H](CCCCN)NC(=O)[C@H](CCCNC(=N)N)NC(=O)CC[C@H](NC(=O)CCCCCCCCCCCCCCCCCCC(=O)O)C(=O)O)C(=O)N[C@@H](CC(N)=O)C(=O)N[C@@H]([C@@H](C)O)C(=O)N[C@@H](C)C(=O)N[C@@H]([C@@H](C)O)C(=O)N1)[C@@H](C)O)C(=O)N[C@@H](CC(C)C)C(=O)N1CCC[C@H]1C(=O)N1CCC[C@H]1C(=O)N[C@H](C(=O)N[C@@H](CC(N)=O)C(=O)N[C@H](C(=O)NCC(=O)N[C@@H](CO)C(=O)N[C@@H](CC(N)=O)C(=O)N[C@H](C(=O)N[C@@H](Cc1ccc(O)cc1)C(N)=O)[C@@H](C)O)C(C)C)[C@@H](C)O
B5: N-alpha-[(S)-4-Carboxy-4-(19-carboxynonadecanoylamino)butyryl]-Arg-[Arg17]-pramlintide (peptide)
peptide: X2-RKCNTATCATQRLANFLRHSSNNFGPILPPTNVGSNTY-NH2
modifications: disulfide 3-8
SMILES: CC[C@H](C)[C@H](NC(=O)[C@@H]1CCCN1C(=O)CNC(=O)[C@H](Cc1ccccc1)NC(=O)[C@H](CC(N)=O)NC(=O)[C@H](CC(N)=O)NC(=O)[C@H](CO)NC(=O)[C@H](CO)NC(=O)[C@H](Cc1c[nH]cn1)NC(=O)[C@H](CCCNC(=N)N)NC(=O)[C@H](CC(C)C)NC(=O)[C@H](Cc1ccccc1)NC(=O)[C@H](CC(N)=O)NC(=O)[C@H](C)NC(=O)[C@H](CC(C)C)NC(=O)[C@H](CCCNC(=N)N)NC(=O)[C@H](CCC(N)=O)NC(=O)[C@@H](NC(=O)[C@H](C)NC(=O)[C@@H]1CSSC[C@H](NC(=O)[C@H](CCCCN)NC(=O)[C@H](CCCNC(=N)N)NC(=O)CC[C@H](NC(=O)CCCCCCCCCCCCCCCCCCC(=O)O)C(=O)O)C(=O)N[C@@H](CC(N)=O)C(=O)N[C@@H]([C@@H](C)O)C(=O)N[C@@H](C)C(=O)N[C@@H]([C@@H](C)O)C(=O)N1)[C@@H](C)O)C(=O)N[C@@H](CC(C)C)C(=O)N1CCC[C@H]1C(=O)N1CCC[C@H]1C(=O)N[C@H](C(=O)N[C@@H](CC(N)=O)C(=O)N[C@H](C(=O)NCC(=O)N[C@@H](CO)C(=O)N[C@@H](CC(N)=O)C(=O)N[C@H](C(=O)N[C@@H](Cc1ccc(O)cc1)C(N)=O)[C@@H](C)O)C(C)C)[C@@H](C)O
B6: N-alpha-[2-(2-{2-[4-(S)-Carboxy-4-(19-carboxynonadecanoylamino)butyrylamino]ethoxy}ethoxy)acetyl]-Arg-[Arg17]-pramlintide (peptide)
peptide: {C20 diacid-γGlu-AEEA}-RKCNTATCATQRLANFLRHSSNNFGPILPPTNVGSNTY-NH2
modifications: disulfide 3-8
SMILES: CC[C@H](C)[C@H](NC(=O)[C@@H]1CCCN1C(=O)CNC(=O)[C@H](Cc1ccccc1)NC(=O)[C@H](CC(N)=O)NC(=O)[C@H](CC(N)=O)NC(=O)[C@H](CO)NC(=O)[C@H](CO)NC(=O)[C@H](Cc1c[nH]cn1)NC(=O)[C@H](CCCNC(=N)N)NC(=O)[C@H](CC(C)C)NC(=O)[C@H](Cc1ccccc1)NC(=O)[C@H](CC(N)=O)NC(=O)[C@H](C)NC(=O)[C@H](CC(C)C)NC(=O)[C@H](CCCNC(=N)N)NC(=O)[C@H](CCC(N)=O)NC(=O)[C@@H](NC(=O)[C@H](C)NC(=O)[C@@H]1CSSC[C@H](NC(=O)[C@H](CCCCN)NC(=O)[C@H](CCCNC(=N)N)NC(=O)COCCOCCNC(=O)CC[C@H](NC(=O)CCCCCCCCCCCCCCCCCCC(=O)O)C(=O)O)C(=O)N[C@@H](CC(N)=O)C(=O)N[C@@H]([C@@H](C)O)C(=O)N[C@@H](C)C(=O)N[C@@H]([C@@H](C)O)C(=O)N1)[C@@H](C)O)C(=O)N[C@@H](CC(C)C)C(=O)N1CCC[C@H]1C(=O)N1CCC[C@H]1C(=O)N[C@H](C(=O)N[C@@H](CC(N)=O)C(=O)N[C@H](C(=O)NCC(=O)N[C@@H](CO)C(=O)N[C@@H](CC(N)=O)C(=O)N[C@H](C(=O)N[C@@H](Cc1ccc(O)cc1)C(N)=O)[C@@H](C)O)C(C)C)[C@@H](C)O
B7: N-alpha-[2-(2-{2-[4-(S)-Carboxy-4-(19-carboxynonadecanoylamino)butyrylamino]ethoxy}ethoxy)acetyl]-Arg-[Ala17]-pramlintide (peptide)
peptide: {C20 diacid-γGlu-AEEA}-RKCNTATCATQRLANFLAHSSNNFGPILPPTNVGSNTY-NH2
modifications: disulfide 3-8
SMILES: CC[C@H](C)[C@H](NC(=O)[C@@H]1CCCN1C(=O)CNC(=O)[C@H](Cc1ccccc1)NC(=O)[C@H](CC(N)=O)NC(=O)[C@H](CC(N)=O)NC(=O)[C@H](CO)NC(=O)[C@H](CO)NC(=O)[C@H](Cc1c[nH]cn1)NC(=O)[C@H](C)NC(=O)[C@H](CC(C)C)NC(=O)[C@H](Cc1ccccc1)NC(=O)[C@H](CC(N)=O)NC(=O)[C@H](C)NC(=O)[C@H](CC(C)C)NC(=O)[C@H](CCCNC(=N)N)NC(=O)[C@H](CCC(N)=O)NC(=O)[C@@H](NC(=O)[C@H](C)NC(=O)[C@@H]1CSSC[C@H](NC(=O)[C@H](CCCCN)NC(=O)[C@H](CCCNC(=N)N)NC(=O)COCCOCCNC(=O)CC[C@H](NC(=O)CCCCCCCCCCCCCCCCCCC(=O)O)C(=O)O)C(=O)N[C@@H](CC(N)=O)C(=O)N[C@@H]([C@@H](C)O)C(=O)N[C@@H](C)C(=O)N[C@@H]([C@@H](C)O)C(=O)N1)[C@@H](C)O)C(=O)N[C@@H](CC(C)C)C(=O)N1CCC[C@H]1C(=O)N1CCC[C@H]1C(=O)N[C@H](C(=O)N[C@@H](CC(N)=O)C(=O)N[C@H](C(=O)NCC(=O)N[C@@H](CO)C(=O)N[C@@H](CC(N)=O)C(=O)N[C@H](C(=O)N[C@@H](Cc1ccc(O)cc1)C(N)=O)[C@@H](C)O)C(C)C)[C@@H](C)O
B8: N-alpha-[4-(19-Carboxynonadecanoylamino)butyryl]-Arg-[Arg17]-pramlintide (peptide)
peptide: {C20 diacid-4‑aminobutyryl}-RKCNTATCATQRLANFLRHSSNNFGPILPPTNVGSNTY-NH2
modifications: disulfide 3-8

What follows are binders tested against T1, Amylin 3(a) receptor (human calcitonin receptor (CTa) with RAMP-3) (human, UniProt P30988 25-474; O60896 24-148, limits assumed) (assay: cell-based or functional assay).
T1 sequence (looked up) 1: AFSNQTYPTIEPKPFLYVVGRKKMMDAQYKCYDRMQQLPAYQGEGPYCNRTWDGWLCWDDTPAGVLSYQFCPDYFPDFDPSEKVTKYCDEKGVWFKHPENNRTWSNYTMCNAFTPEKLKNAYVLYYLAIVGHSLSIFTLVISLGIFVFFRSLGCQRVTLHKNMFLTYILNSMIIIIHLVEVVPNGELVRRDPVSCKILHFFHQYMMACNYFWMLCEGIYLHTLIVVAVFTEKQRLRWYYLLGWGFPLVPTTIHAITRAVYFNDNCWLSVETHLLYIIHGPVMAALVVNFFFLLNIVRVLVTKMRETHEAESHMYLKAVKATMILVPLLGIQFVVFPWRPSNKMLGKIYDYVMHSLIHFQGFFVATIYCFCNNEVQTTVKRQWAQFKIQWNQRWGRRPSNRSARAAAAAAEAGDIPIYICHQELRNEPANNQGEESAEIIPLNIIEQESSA
T1 sequence (looked up) 2: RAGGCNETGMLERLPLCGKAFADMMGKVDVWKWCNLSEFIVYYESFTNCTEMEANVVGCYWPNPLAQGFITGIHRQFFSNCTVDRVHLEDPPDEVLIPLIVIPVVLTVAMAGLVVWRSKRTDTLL

Row | Potency Luciferase [nM] | Binder
1 | 0.1 | B1
2 | 0.9 | B2
3 | 0.1 | B3
4 | 2 | B4
5 | 0.1 | B5
6 | 0.1 | B6
7 | 0.08 | B7
8 | 0.03 | B8

Source: patent US20110105394A1 (Novo Nordisk, published 2011)
